Here are results for two molecules from article PMC9481538, “The interaction between LC8 and LCA5 reveals a novel oligomerization function of LC8 in the ciliary-centrosome system” (Scientific Reports, 2022).

The test system of data set [1] is GST-fused LC8. Kind of data set: GST pull-down of LC8 and sLCA5. The format is binding. To be noted: GST-LC8 bait, MBP-, 6x-His-fused sLCA5 prey, PBS, 1 mM DTT, room temperature; result in words. Here is the method:
For the pull-down experiments, GST-fused LC8 was used as bait, and MBP-, 6x-His-fused LCA5 variants as prey. For controls, GST and MBP were used. Proteins were expressed in 100 ml cultures of E. coli BL21 (DE3) Rosetta cells as described above. Cells were harvested, resuspended in 5 ml PBS supplemented with 1 mg/ml lysozyme and 1 mM DTT, sonicated and clarified by centrifugation. 20 μl of Glutathione Sepharose 4B (Macherey–Nagel) (75%) resin was used for each experiment. Baits were incubated with the resin for 1 h at room temperature, then washed with PBS supplemented with 1 mM DTT. Prey proteins were added and incubated for one hour. The beads were washed and eluted by boiling in a 2 × SDS sample buffer and analyzed in tricine SDS page according to the protocol of Schagger et al[43].

A short description of data set [2]: CD spectroscopy, helical content. It counts as physicochemical. The protocol: CD experiments were carried out on a Jasco J-810 spectropolarimeter using a 1 mm quartz cuvette. For the spectra of the individual constructs, 8 scans were recorded and averaged between 200 nm or 190 nm and 260 nm (in continuous scanning mode, data pitch: 0.2 nm, scanning speed: 50 nm/min, response: 2 s, bandwidth: 2 nm). sLCA5-WT and the mutants were measured at 0.1 mg/ml concentration. 1.2 μM LCA5 and 6 μM LC8 were complexed and analyzed. The spectra of LC8 at a concentration of 6 μM was recorded under the same experimental conditions as described before and subtracted from the individual CD spectra of the sLCA5-LC8 complexes. The baseline subtracted data were evaluated using the BeStSel web-server (http://bestsel.elte.hu/index.php)[46],[47]. Thermal denaturation experiments were recorded at 222 nm between 10 and 80 °C using 1 °C/min heating rate. The thermal denaturation profile was fitted according to the Gibbs–Helmholtz equation assuming a two-state model as described by Shih et al[48]. After fitting, the curves were normalized by the following equation. y=-m^∘-An-T∗mn/Ad-An+md-mnT-1 where y is the ratio of native and unfolded state, An and Ad are the initial values of the Gibbs–Helmholtz equation belong to the native and denatured state, mn and md are the slopes belong to the An and Ad values, m° is the measured CD value in millidegree and T is the temperature in °C. […]

Data set [3] in a line: negative staining transmission electron microscopy of sLCA5-LC8 complexes. The format is physicochemical. Here is the method:
For TEM negative staining experiments, a JEOL JEM-1011 (JEOL Ltd., Tokyo, Japan) electron microscope was used. The purified LCA5-LC8 complexes or LC8 or LCA5 forms alone were put together by using LCA5-WT or the single or double mutants at 30 μM and LC8 at 150 μM concentration in a buffer of 20 mM Tris 70 mM NaCl, pH 7.4, and incubated at 37 °C for 1 h. The complexes were diluted to a final 0.2 mg/ml concentration in the buffer and applied to 300 mesh formvar/carbon-coated copper grids (SPI Inc., USA). After 2 min of incubation the surplus was removed by filter paper and 1% uranyl acetate was applied for 1 min as negative staining. Images were taken around the middle of the grid at 5000, 50,000, 150,000 and 300,000-fold magnification. The collected data was analyzed by Fiji ImageJ software, and the statistical analysis was carried out in Origin 8 software.

The target of data set [4] is T1, LC8 (Homo sapiens, UniProt Q96FJ2).
T1 construct: 6xHis (N); made in house; host or cells: E. coli BL21 (DE3) Rosetta
Put plainly: isothermal titration calorimetry, sLCA5 fragments titrated with LC8. It counts as binding. The following applies: PBS pH 7.4, 1 mM TCEP, 37 °C. The protocol:
LC8 and MBP-fused LCA5 constructs were prepared in PBS supplemented with 1 mM TCEP. Before measurement, protein samples were dialyzed overnight in PBS pH 7.4 (Orange Scientific, OrDial D14 membrane). Peptides were diluted from stock with the buffer used for dialysis. The concentration of samples was determined based on absorbance at 280 nm in the case of proteins, and 205 nm for the peptide. Experiments were performed using MicroCal PEAQ-ITC (Malvern Panalytical), LCA5 peptides were measured at 25 °C, proteins were analyzed at 37 °C. Lebercilin peptide was injected into the cell 18 times 2 μl volumes, with 5 min timing between injections. In case of the protein, LCA5 was placed in the sample cell, and LC8 was injected during 37 injections, 1 μl each. The results were evaluated using MicroCal PEAQ-ITC Analysis Software.
A general note: ITC needs no label: the signal is the heat of the interaction.

The target of data set [5] is T1, LC8. Kind of data set: composition of complexes of LC8 binding partners (Supplementary Table S1). To be noted: this paper's constructs. The text has this:
Number of LC8 Number of Ratio of LCA5
LC8 binding monomeric binding monomeric LC8 in monomers to LC8
Gene name sites partners in complex complex monomers
Supplementary Table S1. Stoichiometries of various LC8 binding partners in complex with LC8. Known LC8 binding partners according to literature data always form dimers upon LC8 binding. The stoichiometry is basically 1:1 in case of one LC8 binding site,where 2 monomeric partners are dimerized by binding one dimeric LC8. This ratio could increase up to 1:11 in case of ASCIZ where the dimeric ASCIZ possibly could bind 11 LC8 dimers in […]
occupied. According to our ITC and CD spectroscopy data, we proposed a very different binding model where the LCA5 forms likely […] alone and LC8 could interconnect this dimerized, moreover the possible binding sites are not fully occupied. […]
and 1:1 ratio case of single mutant LCA5 construct where one binding site presented and in case of wild type LCA5 where 2 binding sites presented, respectively.

Data set [6] can be described thus: CD thermal denaturation. It counts as physicochemical. The following applies: CD at 222 nm, 10–80 °C; for melting temperature Tm: 1 °C/min, two-state fit, without or with LC8 as label shows; for increase in melting temperature on LC8 binding: sLCA5 in complex with LC8 vs without. The protocol:
CD experiments were carried out on a Jasco J-810 spectropolarimeter using a 1 mm quartz cuvette. For the spectra of the individual constructs, 8 scans were recorded and averaged between 200 nm or 190 nm and 260 nm (in continuous scanning mode, data pitch: 0.2 nm, scanning speed: 50 nm/min, response: 2 s, bandwidth: 2 nm). sLCA5-WT and the mutants were measured at 0.1 mg/ml concentration. 1.2 μM LCA5 and 6 μM LC8 were complexed and analyzed. The spectra of LC8 at a concentration of 6 μM was recorded under the same experimental conditions as described before and subtracted from the individual CD spectra of the sLCA5-LC8 complexes. The baseline subtracted data were evaluated using the BeStSel web-server (http://bestsel.elte.hu/index.php)[46],[47]. Thermal denaturation experiments were recorded at 222 nm between 10 and 80 °C using 1 °C/min heating rate. The thermal denaturation profile was fitted according to the Gibbs–Helmholtz equation assuming a two-state model as described by Shih et al[48]. After fitting, the curves were normalized by the following equation. y=-m^∘-An-T∗mn/Ad-An+md-mnT-1 where y is the ratio of native and unfolded state, An and Ad are the initial values of the Gibbs–Helmholtz equation belong to the native and denatured state, mn and md are the slopes belong to the An and Ad values, m° is the measured CD value in millidegree and T is the temperature in °C.

Data set [7] can be described thus: analytical gel filtration. It counts as physicochemical. Here is the method: (§1) For analytical gel filtration a Superose 6 Increase 10/300 (Cytiva) was used with an effective resolution between 5–5000 kDa range and a void volume above 5000 kDa. The column was equilibrated in DPBS supplemented with 200 μM TCEP. The calibration curve was fitted on the chromatogram of gel filtration standard mix (BioRad) with the addition of Dextran Blue to determine the void volume. 100 μl of LCA5 purified protein or LCA5-LC8 complex was injected at the concentration of 30 μM for LCA5 and 150 μM for LC8, with a flow rate of 500 μl/min immediately or after 60 min of incubation at 37 °C. For densitometric analysis, fractions were collected and 200 μl of samples were precipitated in 1.8 ml 96% ethanol at − 80 °C for 2 h. The samples were centrifugated for 30 min at 14,000 g, and dissolved in 15 μl of SDS sample buffer. 10 μl of each sample was run on Tricine-SDS gel. The calibration of the densitometry was performed on samples of known molar ratio of sLCA5 construct and LC8 (see the original gel used for calibration on Suplementary Fig. S16). Data evaluation was performed by using Origin 8 software and Fiji ImageJ software.
Background: In gel filtration, larger molecules generally elute earlier.

The target in data set [8] is T1, LC8. Kind of data set: SDS-PAGE densitometric analysis of gel filtration fractions (sLCA5:LC8 molar ratio). It counts as binding. The following applies: SDS-PAGE densitometry; result in words. Here is the method: as §1

T1 sequence (Q96FJ2 whole entry): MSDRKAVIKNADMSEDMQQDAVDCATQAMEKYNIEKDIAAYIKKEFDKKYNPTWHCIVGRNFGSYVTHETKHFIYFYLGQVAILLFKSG

B1: sLCA5-WT: truncated LCA5 96–430 fused to an N-terminal MBP tag (protein)
chain: DTDLVTKRILSARLLKINELQNEVSELQVKLAELLKENKSLKRLQYRQEKALNKFEDAENEISQLIFRHNNEITALKERLRKSQEKERATEKRVKDTESELFRTKFSLQKLKEISEARHLPERDDLAKKLVSAELKLDDTERRIKELSKNLELSTNSFQRQLLAERKRAYEAHDENKVLQKEVQRLYHKLKEKERELDIKNIYSNRLPKSSPNKEKELALRKNAACQSDFADLCTKGVQTMEDFKPEEYPLTPETIMCYENKWEEPGHLTLDLQSQKQDRHGEAGILNPIMEREEKFVTDEELHVVKQEVEKLEDEWEREELDKKQKEKASLLER
modifications: left off: MBP, N-terminal, kept | His6, C-terminal, kept
notes: truncated LCA5 96–430 fused to an N-terminal MBP tag
On to B1, for which the “interaction with LC8 (GST pull-down)” value in data set [1] is recorded as “can bind LC8”. Moreover, the “molar ellipticity curve upon addition of LC8” value in data set [2] (20 °C, LC8 in fivefold molar excess, vs sLCA5-WT without LC8, result in words) was “remained the same”. In addition, the “helical structures preserved at higher temperatures” value in data set [2] (CD, BeStSel, 20 vs 40 °C, in the presence of LC8, LC8 and MBP-tag subtracted) came out at 80%. Further, in data set [3] (30 μM sLCA5 + 150 μM LC8, 37 °C 1 h, 20 mM Tris 70 mM NaCl pH 7.4), the “measured diameter median of spherical complexes” value is ~ 39 nm. In addition, the “increase in size of complexes vs sLCA5-ΔCQS complexes” value in data set [3] (TEM diameters with LC8, significant by two sample t-test, p = 0.05) came to 20%. In addition, the “− TΔS” value in data set [4] (ITC, MBP-fused sLCA5 titrated with LC8) worked out at 13.7 kJ/mol. In data set [5], the LC8 binding sites came to 2. Besides, in data set [6], the “melting temperature Tm” value is 41,1 °C and the “increase in melting temperature on LC8 binding” value is ~ 5 °C. In data set [7] (Superose 6 Increase 10/300, DPBS, 200 μM TCEP, void volume above 5000 kDa, listed as wild-type LCA5 construct), the “estimated molar mass (gel filtration)” value is given as ~ 610 kDa. In addition, the “void fraction (higher order oligomers)” value in data set [7] (gel filtration void volume, result in words) is on record as “remarkable increase in the void volume fraction”. Moreover, the “increase of the difference between incubated wild type and sLCA5-ΔCQS complexes” value in data set [7] (void fraction, prolonged incubation with LC8) was ~ 3.5 fold. Also, in data set [7] (void volume fraction size, with LC8 in fivefold molar excess), the “stronger propensity to form higher order oligomers vs sLCA5-ΔCQS” value was ~ 20%. Besides, in data set [7] (with LC8, 60 min at 37 °C vs non-incubated complex), the “void fraction increment on incubation” value is listed as 324%.

B2: sLCA5-ΔCQS-ΔVQT: double mutant sLCA5, both LC8 binding motifs mutated (protein)
chain: DTDLVTKRILSARLLKINELQNEVSELQVKLAELLKENKSLKRLQYRQEKALNKFEDAENEISQLIFRHNNEITALKERLRKSQEKERATEKRVKDTESELFRTKFSLQKLKEISEARHLPERDDLAKKLVSAELKLDDTERRIKELSKNLELSTNSFQRQLLAERKRAYEAHDENKVLQKEVQRLYHKLKEKERELDIKNIYSNRLPKSSPNKEKELALRKNAAAAADFADLCTKGAAAMEDFKPEEYPLTPETIMCYENKWEEPGHLTLDLQSQKQDRHGEAGILNPIMEREEKFVTDEELHVVKQEVEKLEDEWEREELDKKQKEKASLLER
modifications: left off: MBP, N-terminal, kept | His6, C-terminal, kept
On to B2, for which, in data set [1], the “interaction with LC8 (GST pull-down)” value was “abolished the interaction with LC8”. Besides, in data set [8], the “LC8 content of fraction” value is reported as “unable to bind LC8”. Besides, in data set [4] (titrated with LC8, result in words), the “measurable interaction with LC8 (ITC)” value was “did not show any measurable interaction”. In data set [6], the “melting temperature Tm” value is 40,7 °C and the “increase in melting temperature on LC8 binding” value is “no similar increase was observed”.
